These results are taken from paper PMC9287160.

The target of this experiment is αMβ2 expressed on K562 cells (human) (UniProt P11215). In words: flow cytometry on cells; αMβ2/K562 cells, 45 min with 10 μg/ml Alexa Fluor 488-iC3b and 0, 1, 5 or 10 μg/ml hCD11bNb1; 1 mM Ca2+ and 1 mM Mg2+, with or without 1 mM Mn2+.

“Alexa Fluor 488-conjugated iC3b (from UniProt P01024 23-667; P01024 1321-1663) (ligand)”: the fold increase of iC3b* binding in the presence of hCD11bNb1 against none was 2 fold.
